Experimental data published in the nanobody polyreactivity screen of Harvey et al. (2022).

Test: yeast display, Sf9 membrane polyspecificity reagent, FACS + sequencing; frameworks hold sequencing errors
Procedure, shortened: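 Nanobodies came from a synthetic yeast display library in Saccharomyces cerevisiae BJ5465, induced with galactose for 36–48 hours and stained for 1 hour at 4 °C with 10% biotinylated, detergent-solubilized Sf9 membrane reagent. Cells were enriched on streptavidin microbeads and then FACS-sorted, with low and high (top ~1%) gates set on anti-HA fluorescence for expression and streptavidin fluorescence for reagent binding. Each polyreactivity label reflects the gate a clone came from. Genes were amplified by colony PCR, sequenced by MiSeq 2 × 250 and filtered by CDR length.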

Row | Sequence | polyreactivity (PSR sort gate)
1 | QVQLVESGGGLVQAGGSLRLSCAASGYIFDYYDMGWYRQAPGKERELVAAINGSGGDTYYADSVKGRFTISRDNANNTVYLEMNSLKPEDTAVYYCAADLVYYSGWGYAFNYWGQGTQVNVSS | high polyreactivity
2 | QVQLVESGGGLVQAGGSLRLSCAASGRIFAFNAMGWYRQAPGKERELVADITSSGVNTYYADSVKGRFTISRDNAKNTVYLQMNSLKPEDTAVYYCAARSYLRWWVGMEYCGQGTQVTVSS | low polyreactivity
3 | QVQLVESGGGLVQAGGSLRLSCAASGSIIFTNTMGWYRQAPGKERELVAAITSGGSTYYADSVKGRFTISRDNAKNTVYLQMNSLKPEDTAVYYCAAAISYYGKYYRLDYWGQGTQVTVSS | low polyreactivity
4 | QVQLEESGGGLVQAGGSLRLSCAASGRIFVRNGMGWYRQAPGKESELVPAITSAGSTNYADSVKGRFTISRDNAKNTVYLQMNSLIPEDTAVYYCATEPSGYYDSYYYFTYSDNYWGQGTQVTVSS | low polyreactivity
5 | QVQHVESGVGLVQAVGSLRLSCAASGLTFKYYAMGWYRQAAVKEWELVARLSRTGGSTNYADSVKGRFTISRDNAKNTLYLQMNSLKPEDTAVSYCNTQFSYSSAPPFWYTKMYYWGQGTQVTVSS | high polyreactivity
6 | QVQLVQSGGGLVQAGGSLRLSCAASGSTFARNAMGWYRQAPGKERELVAAISSSGGRTYYADSVKGRFTISRDHAKNSVYLQMNSLKPEYTEVYYCAAAFSLGMYWGQGTQGTVSS | high polyreactivity
7 | QVQLVESGGGLVQAGGSLRLSCAASGRIFDYNTMGWSRQAPGKERELVAAITGGTGSTYYADSVKGRFTISRDNAKNTVYLQMNSLKPEDTAVYYCAAGFHKRVTPEILYDYWGQGTQVTVSS | low polyreactivity
8 | QVQLVESGGGLVQAGGSLRLSCAASGRIFDYNAMGWYRQAPGKERELVAAITKDDGSTYYADSVKGRFTISRDNAKNTVYLQMNSLKPEDTAVYYCAAEFYWTYVDIWYDYWGQGTQVTVSS | low polyreactivity
9 | QVQLVESGGGLVQAGGSLRLSCAASGFIFTTYAMGWYRQEPGTERELVAAISGRGGTTYYADSVKGRFTISRDNAKNTVYLQMNSMKPEDTAVYYCAADGYPGDDYWGQGTQVTVSS | high polyreactivity
10 | QVQLVESGGGLVQAGGSLRLSCAASGSTFGDNAMGWYRQAPGKERELVAAISSSGDSTYYADSVKGRFTISRDNAKNTVYLQMNSLKPEDTAVYYCAADRGSTAGSVTYTPGNYWGQGTQVTVSS | low polyreactivity
11 | QVQLVESGGGLVQAGGSLRLSCAASGRIFRNNAMGWYRQATGKERELVATISSRGGSTYYADSVKGRFTISSDNAKNNVYLQMNSLKPEDTAVYYCNKRWLHWAGYDYWGQGTQVTVSS | high polyreactivity
12 | QVQLVESGGGLFQAGGSLRLSCAASGSIIRKYAMGWSIQAPGKERELVAAISRRTGNTYYADSVKGRFTISRDNAKNTVYLQMKSLKPEDTAVYYCAADYYSSSSWSEVDSWGQGTQVTVSS | high polyreactivity
13 | QVQLVESGGGLVQAGGSLLLSCAASGFTLEKNAMGWYRTAPGKERELVADISSTDSTNYADSVKGRFTISRDNAKITVYFQMNSVKPEDTAVYYCGRYDGPGTEEFDYWGQGSQVTVSS | low polyreactivity
14 | QVQLVESGGGLVQAGGSLRLSCADSGSIFWGYAMGWYRQAPGKERELVAVISRGGSTYYADSVKGRFTISRDNAKNTVYLQMNSLKPEDTAVYYCAASSSWFYSPEYDYWGQGTQVSVSS | low polyreactivity
15 | QVHLVESGGGLVKAGGSLRLSCAASGGTIFVYMGWYRQDPGKETELVADISGSGGGTYYADSVKGRFTISRDNAMNTVYLQMNSLKPEDTAVYYCAAYYGHTYNGYYYWGQGTQVTVSS | low polyreactivity
16 | QVQLVESGRGLVQAGGSLRLSCAASGRTFDGYAMGWYRQAPGKERELVAAIDYDGVSTYYADSVKGRFTISRDNAKNTVYLPMHSLKPEDTAVYFCAVDATDDWWLDYWGQGTQVSVSS | low polyreactivity
17 | QVQLVESGGGLVQAGGSLRLSCAASGLIFDHNAMGWYRQAPGKERELVAAISYSGARTYYADSVKGRFTISRDNAKNTVYLQMYSLKPEDTAVYYCNAVINSHRRHVTYDYWGQGSQVTVSS | high polyreactivity
18 | QVQLVESGGGLVQAGGSLRLSCAASGRIFKNYAMGWYRQAPGKERELVAAITWSGGRTYYADSVKGRFTISRDNAKNTVYLQMNSLKPEDTAVYYCATAARRGPNSIEPFGYGSWGQGTQVTVSS | high polyreactivity
19 | QVQLVESGGGLVHAGGSLRLSCAASGRIFTWNAMGWYRQAPGKERELVARISSGTRTNYADSVKGRFTISRDNAKNTVYLQMNSLKPEDTAVYYCAAGYYYGYPPRDYWGQGTQVTVSS | high polyreactivity
20 | QVQLVESGGGLVQAGGSLRLSCAASGSTFVPYAMGWYRQAPGKERELVAAITWSGGDSTYYADSVKGRFTISRDNAKNTVYLQMNSLKPEDTAVYYCAASYLGRKYDYWGQGTQVTVSS | high polyreactivity
21 | QVQLVESGGGLVQAGGSLRLSCAASGSIFYYYARGWYRQAPGKERELVAAITSGGRTKYADSVKGRFTISRDNAKNTVNLQMNSLKPEDTAVYYCNARNYGKYRTNDYWGQGTQVTVSS | high polyreactivity

Row | Sequence | polyreactivity (PSR sort gate)
22 | QVQLVESGGGLVQAGGILRLSCAASGSNFWTNAMGWYRQAPGKERELVARISPGGSTNYADSVKGRFTISRDNAKNTVYLQMNSLKPEDTAVYYCAAQRGYVYGYDYWGQGTQVTVSS | low polyreactivity
23 | QVQLVESGGGLVQAGGSLRLSCAASGRIFQPNVMGWYRQAPGKERELVAAIRSGSSTYYADSVKGRFTISRDNAKNTVYLQMNSLKPEDTAVYYCATRRAGRGYDYWGQGTQVTVSS | high polyreactivity
24 | QFQLVESGGGLVQAGGSLRLSCAASGRIFEDSMGWYRQAPGKERELVAAIRWSGGGTYYADSVKGRFTISRDNAKNTVYLQMNSLKPEDTAVYYCATPGTGSVELYGYWGQGTQVTVSS | low polyreactivity
25 | QVQLVESGGCLVQAGGSLRLSCAASGFIFRQYAMGWYRQAPGKERELVAAISTGGGRTYYADSVKGRFTISRDNAKNTVYLQMNSLKPEDTAVYYCAAGYPYSYRDYYYWGQGTQVTVSS | high polyreactivity
26 | QVQLVESGGGLVQAGGSLRLSCAASGFTFRGYVMGWYRQAPGKERELVAAITNIGTSTYYADSVKGRFTISRDNAKNTVYLQMNSLNPEDTAVYYCAARLRSIFYDWGLGTQVTVSS | low polyreactivity
27 | QVQLVESGGGLVQAGGSLRLSCAASARTFSYYTMGWSRQEPGKARELVARISNRGTNTYYADSVKGRFTISRDNAKNTVYLQMNSLKPEDTAVYYFAKYYYSSIVGYDSWGQGTQLTVSS | low polyreactivity
28 | QVQLVESGGGLVQAGGSLRLSCAASGRTFANYAMGWSRQAPGKERELVAAISSGGNTYYADSVKGRFTISRDNAKNTVYLQMNSLKPEDTSVYYCNADYLIKYDYWGKGTQVTVSS | high polyreactivity
29 | QVQLVESGGGLVQAGGSLRLSCAASGSIFSSYAMGWYRQAPGKERALVAGISRRGGSTYYADSVKGRFTISRDNAKNTVYLQMNSLKPEDTAVYYCNARSAGSDLDYWGQGTQVTVSS | high polyreactivity
30 | QVQLVESGGGLVQAGGSLRLSCAASGIIFWRYAMGWYRQAPGKERELVASISSSGGRTYYADSVKGRFTISRDNAKNTVYLQMNSLTPEDTAVYYCAARGPYGYDLLYYWGQGTQVTVSS | high polyreactivity
31 | QVQLVESGGGLVQAGGSLRLSCAASGRIFESYAMGWYRQAPGKERELVAAISSGGGTTYYADSVKGRFTISRDNAKNTVYLQMNSLKPEDTAVYYCAADALSDEYDYWGQGTQVTVSS | low polyreactivity
32 | QVQLVESGGGLVQAGGSLRLSCAASGFIFSYYAMGWYRPAPGKEREFVAAISRRGGSTYYADSVKGRFTISRDNAKNTVYLQMNSLKPEDTAVFYCARRRTSTAVREHYYRDWYGYDFWGQGTQVTVSS | high polyreactivity
33 | QVQLVESGGGLVQAGGSLRLICAASGSTFGPYSMGWYRQAPGKERELVAAIDQISSSTHYADSVKGRFTISRDNAKNTVYLQMNSLKPEDTAVYYCNADEFRYGYFPHYDYWGQGTQVTVSS | low polyreactivity
34 | QVLLQESGGGLVQAGGSLRLSCAARGNIFSAGGMGWYSQAPVNVRELVAGIGTGTSTNYADSVKGRFTISRDNAKNTVYLQMNSLKPEDTAVYYCASGYYSGLSHWFWGQGTQVTVSS | low polyreactivity
35 | QVQLVESGGGLVQAGGSLRLSCAASGRTFRGNAMGWYRQAPGKERELVAAISRRGVSTYYADSVKGRFTISRDNAKNTVYLQMNSLKPEDTAVYYCNADTSYQRVGGNYWGQGTQVTVSS | high polyreactivity
36 | QVQLVESGGGLVQAGGSLRLSCAASGRIFGTYAMGWYRQAPGKERELVASITDRGDSTYADSVKGRFTISRDNAKNTVYLQMNSLKPEDTAVYYCAVGYNSKLAVGMYYWGQGTQVTVSS | low polyreactivity
37 | QVKLVESGGGLVQAGGSLRLSCAASGGTFQPNARGWNRQAPGKERELVAAISWSDGSTYYADSVKGRFTISRDNAKNTVYLQMNSLKPEDTAVYYCAADFTYYDSPYRDYNYESWGQGTQVTVSS | low polyreactivity
38 | QVQLVESGGGLVQAGGSLRLSCAASGSTFPVNTMGWYRQAPGKERELVAAITKNGANTYYADSVKGRFTISRDNAKNTVYLQMNSLKPEDTADYYCAARYVYGKSYSRWLVELDYWGQGTQVTVSS | low polyreactivity
39 | QVQLVESGGGLVHAGGSLRLSCAASGRTFYGNAMGWYRQAPGKEREFVAGISWRGGRTYYADSVKGRFTISRDNAKNTVYLQMHSLKPEDTGVYYCNARYIYTRPRPRNYWGLGTQVTVSS | high polyreactivity
40 | QFQLVESGGGLVQAGGSLRLSCAASGFIFSFYAMGWYRQAPGKERELVARINWTGGSTYYADSVKGRFTISRDNAKNSVYLQMNSLKPEDTAVYYCARPVRRIIGVTDEYWGQGTQVTVSS | low polyreactivity
41 | QVQLVESGGGLVQAGGSLRLSCAASGRIFKRYAMGWYRQAPGKERELVAAITSSGGRTYYADSVKGRFTISRDNAKNTVYLQMNSLKPEDTAVYYCNVDSANRDGYWGQGTQVTVSS | high polyreactivity
